Reference: PMC8931436, “Glycosylphosphatidylinositol-anchored micronemal antigen (GAMA) interacts with the band 3 receptor to promote erythrocyte invasion by malaria parasites” (The Journal of Biological Chemistry, 2022)

T1: ANK1-F2 (ankyrin 1 membrane-binding domain fragment 2, aa 250–568) (human, UniProt P16157 250-568)
T1 construct: amplified from cDNA of human reticulocyte mRNA; also called HA-ANK1-F2; HA-tagged ANK1-F2; source: E. coli BL21 (DE3) pLysS, pET30a, purified; not shown: HA, C-terminal, kept
T1 sequence (looked up): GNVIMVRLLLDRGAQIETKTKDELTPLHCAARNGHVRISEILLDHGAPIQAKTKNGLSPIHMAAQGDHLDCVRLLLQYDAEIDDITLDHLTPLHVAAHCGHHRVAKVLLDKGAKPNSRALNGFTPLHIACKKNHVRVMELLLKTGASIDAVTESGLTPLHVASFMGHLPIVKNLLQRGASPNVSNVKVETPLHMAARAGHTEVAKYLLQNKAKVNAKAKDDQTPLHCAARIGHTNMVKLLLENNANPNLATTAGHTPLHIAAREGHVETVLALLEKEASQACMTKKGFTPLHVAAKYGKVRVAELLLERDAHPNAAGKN


Target: T1, ANK1-F2 (ankyrin 1 membrane-binding …)
Test: SPR; BIAcore S200, 25 °C, HBS-EP pH 7.4; ANK1-F2 immobilised on a CM5 chip, PfGAMA-Tr3 or PvGAMA-F2 injected at varying concentrations; response at equilibrium against concentration, 1:1 Langmuir model
Settings: both partners purified

Binder	Kd [µM]
recombinant PvGAMA-F2 (P. vivax glycosylphosphatidylinositol-anchored micronemal antigen, aa 345–589) (domain or fragment, PvGAMA, P. vivax, PVX_088910, 771-amino acid protein; Cloned into BamH1/Xho1 sites of pET30a; further vector-encoded residues may be present; also called His-PvGAMA-F2; source: E. coli BL21 (DE3) pLysS, pET30a, purified (Ni-NTA); not shown: Flag, C-terminal, kept) DVSVDEKGDRATTAGGNQSASVAAAAPKDAGPTVAAPNTAATLKTAASPNAAATNTAAPPNMGATSPLSNPLYGTSSLQPKDVAVLVRDLLKNTNIIKFENNEPTSQMDDEEIKKLIESSFFDLSDNTMLMRLLIKPQAAILLIIESFIMMTPSPTRDAKTYCKKALVNGQLIETSDLNAATEEDDLINEFSSRYNLFYERLKLEELREIEQNRKALKNSKGTLSVLEVANSQNAPDGKGVNGSG	13.8
recombinant PfGAMA-Tr3 (P. falciparum glycosylphosphatidylinositol-anchored micronemal antigen, aa 500–715) (domain or fragment, PfGAMA, P. falciparum, PF3D7_0828800, 738-amino acid protein; Cloned into BamH1/Xho1 sites of pET30a; further vector-encoded residues may be present; also called His-PfGAMA-Tr3; Flag-PfGAMA-Tr3; source: E. coli BL21 (DE3) pLysS, pET30a, purified (Ni-NTA); not shown: Flag, C-terminal, kept) KDIIKLLKDLIKYLHIVKFENNEPTTNIDEEGIRKLLENSFFDLNDDILIVRLLLKPQTVILTVIQSFMLMTPSPSRDAKAYCKKALINDQLVPTNDTNILSEENELVNNFSTKYVLIYEKMKLQELKEMEESKLKMKYSKTNLSALQVTNPQNNKDKNDASNKNNNPNNSSTPLIAVVTDLSGEKTEDIINNNVDIATLSVGVQNTFQGPNAKAG	0.166
